B4: FLI1, untagged (other, UniProt Q01543 1-452, looked up)
chain: MDGTIKEALSVVSDDQSLFDSAYGAAAHLPKADMTASGSPDYGQPHKINPLPPQQEWINQPVRVNVKREYDHMNGSRESPVDCSVSKCSKLVGGGESNPMNYNSYMDEKNGPPPPNMTTNERRVIVPADPTLWTQEHVRQWLEWAIKEYSLMEIDTSFFQNMDGKELCKMNKEDFLRATTLYNTEVLLSHLSYLRESSLLAYNTTSHTDQSSRLSVKEDPSYDSVRRGAWGNNMNSGLNKSPPLGGAQTISKNTEQRPQPDPYQILGPTSSRLANPGSGQIQLWQFLLELLSDSANASCITWEGTNGEFKMTDPDEVARRWGERKSKPNMNYDKLSRALRYYYDKNIMTKVHGKRYAYKFDFHGIAQALQPHPTESSMYKYPSDISYMPSYHAHQQKVNFVPPHPSSMPVTSSSFFGAASQYWTSPTGGIYPNPNVPRHPNTHVPSHLGSYY
notes: Stands for endogenous FLI1 (HEK-293T, A673) in co-immunoprecipitation and PLA, and for FLI1 from an expression vector in the reporter assays; also called endogenous FLI1

In assay [1] the target is B4. The assay is described as follows: co-immunoprecipitation with anti-Gluc antibody, immunoblot for endogenous FLI1, HEK-293 cells (FIG. 3D). As to the method:
(§1) HEK-293T cells (6×10³) were seeded in each well of 96-well plates. […] Cells were lysed after 24 hours and processed for co-immunoprecipitation assays, in which the Gluc protein was immunoprecipitated using a specific antibody. […] Blots are representative of three or more biological replicates. […] Similarly, the input of recombinant proteins is shown in the middle panels of C and D. Both molecular weights and relative quantities of individual Gluc fusion proteins are shown by means of immunoblotting with an antibody to Gluc. Individual fusion proteins are identified by numbers and their molecular weights are calculated below each panel.
A general note: A western blot detects proteins with antibodies after separation by electrophoresis.

Assay [2] deals with T1, Gluc1-PU.1 (UniProt P17947-2 1-271).
T1 construct: not shown: Gaussia luciferase (Gluc), amino-terminal fragment Gluc1, amino acids 1-93
Description: PCA (split Gaussia luciferase) in HEK-293 cells, DEX 1.0 µM 60 min (FIG. 1B). The text has this: EB, empty beads; C, solvent control. Images shown are representative of three biological replicates.
The resulting luminescence was normalized to the signal associated with cells treated with vehicle only.

The target in assay [3] is T1, Gluc1-PU.1. Description: PCA in HEK-293T cells, estradiol 10 nM 60 min (FIG. 8C). The procedure: (A) HEK-293T cells (6×10³) were seeded in 96-well plates. […] (B and C) HEK-293T cells (6×10³) were seeded in 96-well plates. […] Cells were then lysed and luminescence was determined.
For assay [4], the target named is T2, glucocorticoid receptor (GR), untagged (human, UniProt P04150 1-777).
T2 sequence (looked up): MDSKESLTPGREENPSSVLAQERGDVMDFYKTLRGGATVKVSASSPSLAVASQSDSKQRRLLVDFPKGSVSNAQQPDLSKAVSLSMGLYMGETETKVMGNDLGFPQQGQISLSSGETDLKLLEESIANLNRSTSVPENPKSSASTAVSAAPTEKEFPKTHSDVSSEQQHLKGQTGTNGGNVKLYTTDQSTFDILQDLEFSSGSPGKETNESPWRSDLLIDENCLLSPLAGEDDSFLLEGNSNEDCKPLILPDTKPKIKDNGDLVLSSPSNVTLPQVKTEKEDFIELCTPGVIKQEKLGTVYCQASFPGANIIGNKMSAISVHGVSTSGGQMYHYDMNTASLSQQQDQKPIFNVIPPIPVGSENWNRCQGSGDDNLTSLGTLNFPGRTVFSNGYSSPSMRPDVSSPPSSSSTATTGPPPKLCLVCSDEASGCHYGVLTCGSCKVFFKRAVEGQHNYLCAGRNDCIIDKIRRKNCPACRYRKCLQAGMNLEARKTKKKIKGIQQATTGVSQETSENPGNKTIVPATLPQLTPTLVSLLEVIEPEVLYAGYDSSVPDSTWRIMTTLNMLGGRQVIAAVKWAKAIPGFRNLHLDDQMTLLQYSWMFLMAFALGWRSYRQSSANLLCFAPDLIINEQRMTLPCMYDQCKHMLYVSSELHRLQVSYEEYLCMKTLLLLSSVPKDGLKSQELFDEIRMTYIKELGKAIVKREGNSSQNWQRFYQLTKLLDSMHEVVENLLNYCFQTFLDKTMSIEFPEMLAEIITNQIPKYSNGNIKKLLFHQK
Description: cell-based or functional assay.

Assay [5] concerns the target T3, GR NTD+DBD-Gluc2 (NTD and DBD of GR fused to Gluc2) (human, UniProt P04150 1-486).
T3 construct: domain: NTD+DBD;range 94-169; not shown: Gaussia luciferase (Gluc), carboxyl-terminal fragment Gluc2, amino acids 94-169
T3 sequence (looked up): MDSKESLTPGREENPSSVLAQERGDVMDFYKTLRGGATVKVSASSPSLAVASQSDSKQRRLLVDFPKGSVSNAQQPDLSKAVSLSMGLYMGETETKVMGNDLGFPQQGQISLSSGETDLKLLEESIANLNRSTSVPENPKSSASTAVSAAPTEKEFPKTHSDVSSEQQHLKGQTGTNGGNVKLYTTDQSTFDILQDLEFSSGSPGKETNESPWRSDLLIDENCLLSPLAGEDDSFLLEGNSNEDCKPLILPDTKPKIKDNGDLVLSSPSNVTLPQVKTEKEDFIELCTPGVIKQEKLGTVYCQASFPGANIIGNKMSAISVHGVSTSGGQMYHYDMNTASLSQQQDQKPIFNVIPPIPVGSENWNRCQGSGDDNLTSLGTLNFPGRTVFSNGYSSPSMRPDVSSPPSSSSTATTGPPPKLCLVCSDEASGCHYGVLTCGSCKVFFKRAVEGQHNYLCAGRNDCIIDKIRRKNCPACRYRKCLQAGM
Description: co-immunoprecipitation with anti-Gluc antibody, immunoblot for endogenous FLI1, HEK-293 cells (FIG. 3D). The procedure: as §1

The text below walks through data of patent US20210275545A1 (YEDA RESEARCH AND DEVELOPMENT, published 2021).

B1: GR NTD-Gluc2 (NTD of GR fused to Gluc2) (other, UniProt P04150 1-420, looked up, not shown: large carriers)
chain: MDSKESLTPGREENPSSVLAQERGDVMDFYKTLRGGATVKVSASSPSLAVASQSDSKQRRLLVDFPKGSVSNAQQPDLSKAVSLSMGLYMGETETKVMGNDLGFPQQGQISLSSGETDLKLLEESIANLNRSTSVPENPKSSASTAVSAAPTEKEFPKTHSDVSSEQQHLKGQTGTNGGNVKLYTTDQSTFDILQDLEFSSGSPGKETNESPWRSDLLIDENCLLSPLAGEDDSFLLEGNSNEDCKPLILPDTKPKIKDNGDLVLSSPSNVTLPQVKTEKEDFIELCTPGVIKQEKLGTVYCQASFPGANIIGNKMSAISVHGVSTSGGQMYHYDMNTASLSQQQDQKPIFNVIPPIPVGSENWNRCQGSGDDNLTSLGTLNFPGRTVFSNGYSSPSMRPDVSSPPSSSSTATTGPPPKL
notes: domain: NTD;range 94-169
As for B1, the binding result in assay [1] is “no binding”.

B2: GR-Gluc2 (full-length glucocorticoid receptor fused at its carboxyl terminus to Gluc2) (receptor, UniProt P04150 1-777, looked up)
chain: MDSKESLTPGREENPSSVLAQERGDVMDFYKTLRGGATVKVSASSPSLAVASQSDSKQRRLLVDFPKGSVSNAQQPDLSKAVSLSMGLYMGETETKVMGNDLGFPQQGQISLSSGETDLKLLEESIANLNRSTSVPENPKSSASTAVSAAPTEKEFPKTHSDVSSEQQHLKGQTGTNGGNVKLYTTDQSTFDILQDLEFSSGSPGKETNESPWRSDLLIDENCLLSPLAGEDDSFLLEGNSNEDCKPLILPDTKPKIKDNGDLVLSSPSNVTLPQVKTEKEDFIELCTPGVIKQEKLGTVYCQASFPGANIIGNKMSAISVHGVSTSGGQMYHYDMNTASLSQQQDQKPIFNVIPPIPVGSENWNRCQGSGDDNLTSLGTLNFPGRTVFSNGYSSPSMRPDVSSPPSSSSTATTGPPPKLCLVCSDEASGCHYGVLTCGSCKVFFKRAVEGQHNYLCAGRNDCIIDKIRRKNCPACRYRKCLQAGMNLEARKTKKKIKGIQQATTGVSQETSENPGNKTIVPATLPQLTPTLVSLLEVIEPEVLYAGYDSSVPDSTWRIMTTLNMLGGRQVIAAVKWAKAIPGFRNLHLDDQMTLLQYSWMFLMAFALGWRSYRQSSANLLCFAPDLIINEQRMTLPCMYDQCKHMLYVSSELHRLQVSYEEYLCMKTLLLLSSVPKDGLKSQELFDEIRMTYIKELGKAIVKREGNSSQNWQRFYQLTKLLDSMHEVVENLLNYCFQTFLDKTMSIEFPEMLAEIITNQIPKYSNGNIKKLLFHQK
notes: domain: full length;range 94-169; Expressed in HEK-293/HEK-293T cells by transfection; also called Gluc2-GR; not shown: Gaussia luciferase (Gluc), carboxyl-terminal fragment Gluc2, amino acids 94-169
On to B2, for which, in assay [2], the binding result was “binds”.

B3: ERα-Gluc2 (estrogen receptor alpha fused to Gluc2) (receptor, UniProt P03372 1-595, looked up)
chain: MTMTLHTKASGMALLHQIQGNELEPLNRPQLKIPLERPLGEVYLDSSKPAVYNYPEGAAYEFNAAAAANAQVYGQTGLPYGPGSEAAAFGSNGLGGFPPLNSVSPSPLMLLHPPPQLSPFLQPHGQQVPYYLENEPSGYTVREAGPPAFYRPNSDNRRQGGRERLASTNDKGSMAMESAKETRYCAVCNDYASGYHYGVWSCEGCKAFFKRSIQGHNDYMCPATNQCTIDKNRRKSCQACRLRKCYEVGMMKGGIRKDRRGGRMLKHKRQRDDGEGRGEVGSAGDMRAANLWPSPLMIKRSKKNSLALSLTADQMVSALLDAEPPILYSEYDPTRPFSEASMMGLLTNLADRELVHMINWAKRVPGFVDLTLHDQVHLLECAWLEILMIGLVWRSMEHPGKLLFAPNLLLDRNQGKCVEGMVEIFDMLLATSSRFRMMNLQGEEFVCLKSIILLNSGVYTFLSSTLKSLEEKDHIHRVLDKITDTLIHLMAKAGLTLQQQHQRLAQLLLILSHIRHMSNKGMEHLYSMKCKNVVPLYDLLLEMLDAHRLHAPTSRGGASVEETDQSHLATAGSTSSHSLQKYYITGEAEGFPATV
notes: not shown: Gaussia luciferase (Gluc), carboxyl-terminal fragment Gluc2, amino acids 94-169
Take B3: the binding result in assay [3] was “no binding”.

Consider B4, for which, in assay [4], the “GRE activity, luciferase reporter (FIG. 4D)” value worked out at 17 fold and the “GRE activity, luciferase reporter, endogenous GR with DEX (FIG. 4E)” value was approximately 2 fold. In assay [5], the binding result is “no binding”.
